From publication doi:10.1101/2024.06.05.597502v1

Substrate: O=[N+]([O-])c1ccc(O[C@@H]2O[C@H](CO)[C@@H](O)[C@H](O)[C@H]2O)cc1
Experiment: purified protein
Conditions: 50 mM sodium acetate pH 5.5, 55 °C

B1: AoBgl (Aspergillus oryzae exo-β-(1,3) glucanase) (Aspergillus oryzae RIB40) (protein)
chain: SRLDPRASSFDYNGEKVRGVNLGGWLVLEPWITPSIFDAAGAEAVDEWSLTKILGKEEAEARLSAHWKSFVSAGDFQRMADAGLNHVRIPIGYWALGPLEGDPYVDGQLEYLDKAVEWAGAAGLKVLIDLHGAPGSQNGFDNSGRRGAIQWQQGDTVEQTLDAFDLLAERYLGSDTVAAIEAINEPNIPGGVDQGKLQEYYGSVYGIVNKYNAGTSVVYGDGFLPVESWNGFKTEGSKVVMDTHHYHMFDNGLIAMDIDSHIDAVCQFAHQHLEASDKPVIVGEWTGAVTDCAKYLNGKGNGARYDGSYAADKAIGDCSSLATGFVSKLSDEERSDMRRFIEAQLDAFELKSGWVFWTWKTEGAPGWDMSDLLEAGVFPTSPDDREFPKQC
Km: 5.78 mM
